Test results: US20240262878A1, “PHOTOACTIVATABLE GASDERMIN PROTEINS” (THE BOARD OF TRUSTEES OF THE UNIVERSITY OF ILLINOIS, priority 2021, published 2024)
“Also recorded” adds a separate entry of the source.

Columns and labels:
full length human GSDMD = tested on: T1, full length human GSDMD
T1 sequence: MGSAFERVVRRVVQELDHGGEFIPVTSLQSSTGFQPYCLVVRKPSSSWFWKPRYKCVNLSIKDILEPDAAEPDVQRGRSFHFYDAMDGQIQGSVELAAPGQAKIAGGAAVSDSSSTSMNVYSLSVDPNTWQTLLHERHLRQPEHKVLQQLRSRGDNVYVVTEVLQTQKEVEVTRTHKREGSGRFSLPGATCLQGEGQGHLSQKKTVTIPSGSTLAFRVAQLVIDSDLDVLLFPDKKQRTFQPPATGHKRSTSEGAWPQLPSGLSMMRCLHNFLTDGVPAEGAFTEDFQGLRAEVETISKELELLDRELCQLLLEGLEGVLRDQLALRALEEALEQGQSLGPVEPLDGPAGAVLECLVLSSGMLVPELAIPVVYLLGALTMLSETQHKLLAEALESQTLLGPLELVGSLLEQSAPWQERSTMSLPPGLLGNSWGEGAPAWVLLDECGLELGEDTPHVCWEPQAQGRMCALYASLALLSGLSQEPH

Hela cells [1] = experiment: Optogenetic activation of PhoDer, membrane-targeted jRCaMP1b calcium flare imaging and fluctuation analysis; format: cell-based
Description: Cloning. Cloning and subcloning were performed using the DH5a strain of E. coli. All mammalian constructs were cloned into the pcDNA3.0 vector with a modified multiple cloning site. Plasmids were generated as follows. Gasdermin D gene was obtained from Addgene. A diffusible optogenetic GSDMD, referred to herein as “PhoDer” and set forth in SEQ ID NO: 33, was constructed according to the reported domains structure by ligating three fragments into the pcDNA3.0 vector in one reaction via Gibson Assembly (New England BioLabs). For each fragment, PCR was specifically designed to create appropriate complementation. The jRCaMP1b gene, encoding a sensitive red protein calcium indicator, was obtained from Addgene. Membrane targeted calcium indicator jRCaMP1b was constructed by ligating a PCR fragment of the calcium indicator into the restriction enzyme sites BamHI and EcoRI in a modified pcDNA3.0 vector carrying a 5′ fragment encoding the N-terminal Lyn kinase localization sequence.
(§1) Cell Culture. HeLa and RAW264.7 cells were maintained in Dulbecco's Modified Eagle Medium (DMEM) medium supplemented with 10% fetal bovine serum (FBS) and 1% penicillin and streptomycin. Cells were transfected at 50%-70% confluency using LIPOFECTAMINE® 2000 transfection reagent and incubated for 24 hours before imaging. Cells were never serum-starved. To examine endogenous inflammatory activation, RAW264.7 cells were treated with 100 ng/μL lipopolysaccharide (LPS, Invivogen) at the beginning of each experiment. Pretreatment to bias membrane composition by phosphatidylinositol 4,5-bisphosphate (PIP2) modifying enzymes was performed by incubating Hela cells in Hanks' Balanced Salt Solution (HBSS) buffer with inhibitors at 37° C. for 10 minutes to prior imaging at the following concentrations: for phosphoinositide 3-kinase (PI3K), cells were treated 10 μM wortmannin (Tocris); and for phospholipase C (PLC), cells were treated with 10 μM U73122 (Tocris). Cells were removed from the incubator and allowed to come to thermal equilibrium before being imaged in HBSS buffer at room temperature.
Fluorescence Imaging, Optogenetic Activation, and Post-Processing. All epifluorescence imaging was performed on a customized Nikon Ti2-E microscope equipped with individual control over excitation (EX) and emission (EM) filters, a fast LED light source (Lumencor) with fluid-cooled EMCCD (Andor), motorized stage, and examined under a 40× or 100× oil immersion objective under live focus tracking. For RFP, excitation (EX) and emission (EM) filter combinations (maxima/bandwidth in nm) are indicated. Cells were imaged at 12-15 second intervals. Emission intensities of individual cells were background-subtracted before normalization to zero time point, when optogenetic activation began. In the optical setup, optogenetic activation of PhoDer was performed using an EX filter at 440/20 nm for 20-30 ms across whole fields of view. This replicated the progression of endogenous activation of GSDMD observed in LPS-stimulated RAW264.7 cells. […] Where applicable, inhibitors were treated at the indicated concentration for 15 minutes prior to imaging.
Fluctuation Analysis and Quantification. To automate the objective isolation and quantitation of calcium flares, a post-processing algorithm was developed based on principles and normalization scheme detailed in work on photochromic stochastic optical fluctuation imaging (pcSOFI) (Dedecker et al. (2012) Proc. Natl. Acad. Sci. USA 109: 10909-10914). Briefly, fluctuation caused by the flares generate high autocorrelation signals in time-averaged series and yield high contrast at locales of the greatest ion flux. To truly reflect the local flux change, it is then normalized to remove dependence on the number of biosensors reporting at the given location using a scheme detailed previously (Mo et al. (2017) Nat. Methods 14 (4): 427-434). […]

[2] = tested on: RAW264.7 and mouse bone marrow-derived macrophages (BMDM); experiment: Optogenetic activation of PhoDer in transiently transfected macrophages, calcium response; format: cell-based; conditions: transiently transfected RAW264.7 and mouse BMDM
Description: as §1
Fluorescence Imaging, Optogenetic Activation, and Post-Processing. […]

Hela cells [3] = experiment: Modulating molecular transport of a cell by light activation of PhoDer (GFP efflux, phalloidin influx, antibody delivery); format: cell-based
Description: Using the PhoDer protein, it was determined whether a large molecule, i.e., an impermeable dye, fluorescent protein or an IgG antibody, could be transported into or out of a living cell via light-inducible activation of the PhoDer construct.
GFP Efflux. Cells expressing GFP were transfected with the PhoDer protein and illuminated intermittently for 1 hour. Over time the gasdermin pore grew larger and GFP fluorescence was captured on a fluorescence microscope using a 40× objective.
Phalloidin Influx. Phalloidin is a cell impermeable dye used in the labeling of F-actin. Cells were transfected with the PhoDer protein and contacted with phalloidin in the cell medium. The cells were subsequently illuminated and permeation of the phalloidin was monitored. […] As such, control gasdermin pore formation was capable of mediating cargo delivery in the absence of cell death.
Antibody Delivery. Hela cells expressing PhoDer were placed in medium containing a fluorescently tagged anti-tubulin monoclonal IgG antibody (˜150 kDa, ˜14 nm in size). Before exposure to light, antibody fluorescence was evident in the medium. […] Super-resolution imaging of the cells was carried out using STORM (Stochastic Optical Reconstruction Microscopy). […] Advantageously, the cells remained intact and alive thereby allowing for analysis of cytoskeletal tubulin and nuclear tubulin. […] Given that cytoskeletal and nuclear tubulin have distinct functions apart from their structural roles in forming microtubules, delivery of the anti-tubulin antibody via the present invention allows for further subcellular analysis of tubulin in living cells.

Hela cells [4] = experiment: Reversible optogenetics, cyclic activation; format: cell-based
Description: Reversible Optogenetics. HeLa cells expressing a modified gasdermin protein of the invention (SEQ ID NO: 40) were subjected to cyclic activation. Whereas gasdermin lacking a photoactivatable linker has no ability to reverse and will kill the cell typically in 30 minutes or less, activation of reversible optogenetic gasdermin allow cells to stay alive for 2 hours or longer. Furthermore, upon closer examination, the cyclic activation pattern can clearly be detected in the response of these cells via autocorrelation function (FIG. 13). The “imprinting” of this cyclic pattern into the cellular response can only be possible if the optogenetic gasdermin protein is reversible.

In the case of caspase-1, the “micro-current recordings in a POPE/POPC planar lipid bilayer” value (full length human GSDMD) is reported as “upon the addition of activated GSDMD (mixture with caspase-1 to cleave the C-terminal autoinhibition domain), minute current fluctuations were detected”.

B1: PhoDer: optogenetically activatable human GSDMD with photocleavable linker between N- and C-terminal domains, SEQ ID NO: 33 (protein)
chain: MGSAFERVVRRVVQELDHGGEFIPVTSLQSSTGFQPYCLVVRKPSSSWFWKPRYKCVNLSIKDILEPDAAEPDVQRGRSFHFYDAMDGQIQGSVELAAPGQAKIAGGAAVSDSSSTSMNVYSLSVDPNTWQTLLHERHLRQPEHKVLQQLRSRGDNVYVVTEVLQTQKEVEVTRTHKREGSGRFSLPGATCLQGEGQGHLSQKKTVTIPSGSTLAFRVAQLVIDSDLDVLLFPDKKQRTFQPPATGHKRSTSEGAWPQLPSGLSMMRCLHNGGGSVIPDYFKQSFPEGYSWERSMTYEDGGICIATNDITMEGDSFINKIHFKGTNFPPNGPVMQKRTVGWEASTEKMYERDGVLKGDVKMKLLLKGGGHYRCDYRTTYKVKQKPVKLPDYHFVDHRIEILSHDKDYNKVKLYEHAVARNSTDSMDELYKGGSGGMVSKGEETITSVIKPDMKNKLRMEGNVNGHAFVIEGEGSGKPFEGIQTIDLEVKEGAPLPFAYDILTTAFHYGNRVFTKYPRGGGVPAEGAFTEDFQGLRAEVETISKELELLDRELCQLLLEGLEGVLRDQLALRALEEALEQGQSLGPVEPLDGPAGAVLECLVLSSGMLVPELAIPVVYLLGALTMLSETQHKLLAEALESQTLLGPLELVGSLLEQSAPWQERSTMSLPPGLLGNSWGEGAPAWVLLDECGLELGEDTPHVCWEPQAQGRMCALYASLALLSGLSQEPH
modifications: photocleavable linker
B1 was tested, and the “average circularity (minor/major radii ratio) of the flares” value (Hela cells [1]) was 0.75, the “pores that persisted after the mean open time and reopened” value (Hela cells [1]) was ~57% and the “calcium response upon optogenetic activation” value (Hela cells [1]; Hela cells expressing PhoDer, membrane-targeted jRCaMP1b) was “caused spontaneous calcium flares at sporadic locations on the plasma membrane”. The “time in which calcium flares maximized” value (Hela cells [1]; average, n=21 pores) was 0.35 min, the “cooperative coefficient of pore closing” value (Hela cells [1]; mean of n=21, R^2=0.996) was 0.73 and the “average time pores were open” value (Hela cells [1]; n=21 pores) was 1.55 min. The “mean diameter reached by calcium flares” value (Hela cells [1]; n=21 pores) was ~10 μm, the “calcium response upon optogenetic activation” value [2] was “initiated clearly localized transient calcium flares” and the “time cells observed intact and adherent after antibody delivery” value (Hela cells [3]) was “at least 24 hours”. For the same molecule, the “delivery of fluorescently tagged anti-tubulin monoclonal IgG antibody” value (Hela cells [3]; Hela cells, about 5 minute blue-light activation) was “the fluorescent antibody was delivered into the interior of the cell”, the “cell lysis after phalloidin delivery (calcium imaging)” value (Hela cells [3]; blue-light activation) was “did not lyse” and the “phalloidin influx, F-actin labeling” value (Hela cells [3]; blue-light activation, phalloidin in cell medium) was “allowed phalloidin to permeate and bind F-actin; also recorded: delivers actin labels into living cells”. The GFP efflux (Hela cells [3]; cells expressing GFP, illuminated intermittently for 1 hour) was “GFP left the cell”.

B2: SEQ ID NO: 40: reversible optogenetic gasdermin variant, modified gasdermin protein of the invention (protein)
chain: MGSAFERVVRRVVQELDHGGEFIPVTSLQSSTGFQPYCLVVRKPSSSWFWKPRYKCVNLSIKDILEPDAAEPDVQRGRSFHFYDAMDGQIQGSVELAAPGQAKIAGGAAVSDSSSTSMNVYSLSVDPNTWQTLLHERHLRQPEHKVLQQLRSRGDNVYVVTEVLQTQKEVEVTRTHKREGSGRFSLPGATCLQGEGQGHLSQKKTVTIPSGSTLAFRVAQLVIDSDLDVLLFPDKKQRTFQPPATGHKRSTSEGAWPQLPSGLSMMRCLHNGGGGMLATTLERIEKNFVITDPRLPDNPIIFASDSFLQLTEYSREEILGRNCRFLQGPETDRATVRKIRDAIDNQTEVTVQLINYTKSGKKFWNVFHLQPMRDYKGDVQYFIGVQLDGTERLHGAAEREAVCLIKKTAFQIAEAANDENYFGGGGVPAEGAFTEDFQGLRAEVETISKELELLDRELCQLLLEGLEGVLRDQLALRALEEALEQGQSLGPVEPLDGPAGAVLECLVLSSGMLVPELAIPVVYLLGALTMLSETQHKLLAEALESQTLLGPLELVGSLLEQSAPWQERSTMSLPPGLLGNSWGEGAPAWVLLDECGLELGEDTPHVCWEPQAQGRMCALYASLALLSGLSQEPH
In the case of B2, the “time cells stay alive under activation” value (Hela cells [4]; HeLa cells, cyclic activation) is reported as ≥ 2 h and the “reversibility (autocorrelation function of cyclic activation)” value (Hela cells [4]; activations every 20 cycles) is reported as “achieved”.
